Measured values as given in article PMC12133307, “Structure, kinetics, and mechanism of Pseudomonas putida sulfoquinovose dehydrogenase, the first enzyme in the sulfoglycolytic Entner-Doudoroff pathway” (Biochemical Journal, 2025).

Target: the molecule itself
Assay: SEC-MALS; SEC-MALLS, Superdex S200 10/300 GL, 100 mM Tris pH 7.5, 300 mM NaCl, 100 µl at ~2 mg/ml, 0.5 ml/min, 20 °C

B1: Pseudomonas putida SQ dehydrogenase (PpSQDH) (enzyme, Pseudomonas putida SQ1)
chain: MNRHTDTHYPSLADKVVLISGGASGIGRAFVEAFVAQGSRVAFLDLDAEAGQGLAHALGANSLFLPCDVRDIERLKACVAEVERTWGAVDVLINNAARDDRHALADVSVEYWDERMQTNLRHAFFAAQAVAPGMARRGSGAIINMGSISWMRGRPGMVCYTTAKAALNGMTRTLARELGGQGIRINSLVPGAIRTERQDAMWAADPAGLEAASQAFIDQQMLKFRLDASDCARLALFLASDDSRGCTGQNFVVDAGLSIQ
notes: SQ dehydrogenase PpSQ1_00090 of Pseudomonas putida SQ1; Gln260 is the C-terminal residue; no step that removes the tag is described; A second preparation for kinetics was made in 'NEB T7 Express' E. coli (HisTrap, Superdex 75); also called sulfoquinovose dehydrogenase; PpSQ1_00090; source: E. coli BL21(DE3), purified (Ni-NTA IMAC, SEC)
stoichiometry N: 4
